System: cocaine
Assay: Plasma cocaine, benzoylecgonine and ecgonine methyl ester (LC-MS) and cocaine PK after IV cocaine post-AlbuBChE
Type: in vivo, cynomolgus monkeys
Conditions: 0.2 mg/kg IM
Description: Blood was placed into K2EDTA blood collection tubes with esterase inhibitor diisopropylfluorophosphate (DFP). Tubes were inverted several times and placed on wet ice upon collection. Samples were centrifuged at 2-8° C. within 45 minutes of collection. The resultant plasma was recovered and a single 200 μL aliquot of plasma was placed into polypropylene tubes. Plasma samples were frozen over dry ice and stored at −75±15° C.
The following outline describes the LC-MS-based assay employed for the measurement of cocaine in plasma samples. Prior to MS analysis, plasma samples, calibration standards and controls were extracted using supported liquid extraction (SLE-ISOLUTE, Biotage). Twenty-five microliters of samples (25 μL) received 150 μl of 5% Ammonium hydroxide and 25 μl internal standard solution (Cocaine-d3). After mixing and transfer to SLE plate, samples were eluted with methylene chloride and evaporated to dryness. After resuspension in 50 μl of reconstitution solution—5% ACM in 10 mM ammonium acetate in water, 10 μl was injected onto Thermo Hypercarb column at 0.5 ml/min. Mobile phase was biphasic. Mass spectrophotometric detection was performed using Api 4000, APCI positive interface and Multiple Reaction Monitoring (MRM). Plasma concentrations of cocaine, benzoylecgonine and ecgonine methyl ester were determined using this assay.
When the data permits, pharmacokinetic parameter values for cocaine and its metabolites were determined using plasma concentration-times profiles for individual animals at all the study days of cocaine administration. […] Specifically the model for non-compartmental analysis with IV bolus input for cocaine and extravascular input for the metabolites.

[1] = cocaine 1 mg/kg IV 2 hr post-AlbuBChE
[2] = cocaine 1 mg/kg IV 2 hr post-AlbuBChE, 5 min after cocaine
[3] = cocaine 1 mg/kg IV 2 hr post-AlbuBChE, 10 min after cocaine
[4] = cocaine 1 mg/kg IV 2 hr post-AlbuBChE, 15 min after cocaine
[5] = cocaine 1 mg/kg IV 2 hr post-AlbuBChE, 20 min after cocaine
[6] = cocaine 1 mg/kg IV 2 hr post-AlbuBChE, 30 min after cocaine
[7] = cocaine 1 mg/kg IV 2 hr post-AlbuBChE, 40 min after cocaine
[8] = cocaine 1 mg/kg IV 2 hr post-AlbuBChE, 60 min after cocaine
[9] = cocaine 1 mg/kg IV 48 hr post-AlbuBChE
[10] = cocaine 1 mg/kg IV 48 hr post-AlbuBChE, 5 min after cocaine
[11] = cocaine 1 mg/kg IV 48 hr post-AlbuBChE, 10 min after cocaine
[12] = cocaine 1 mg/kg IV 48 hr post-AlbuBChE, 15 min after cocaine
[13] = cocaine 1 mg/kg IV 48 hr post-AlbuBChE, 20 min after cocaine
[14] = cocaine 1 mg/kg IV 48 hr post-AlbuBChE, 30 min after cocaine
[15] = cocaine 1 mg/kg IV 48 hr post-AlbuBChE, 40 min after cocaine
[16] = cocaine 1 mg/kg IV 48 hr post-AlbuBChE, 60 min after cocaine
[17] = cocaine 1 mg/kg IV 96 hr post-AlbuBChE
[18] = cocaine 1 mg/kg IV 96 hr post-AlbuBChE, 5 min after cocaine
[19] = cocaine 1 mg/kg IV 96 hr post-AlbuBChE, 10 min after cocaine
[20] = cocaine 1 mg/kg IV 96 hr post-AlbuBChE, 15 min after cocaine
[21] = cocaine 1 mg/kg IV 96 hr post-AlbuBChE, 20 min after cocaine
[22] = cocaine 1 mg/kg IV 96 hr post-AlbuBChE, 30 min after cocaine
[23] = cocaine 1 mg/kg IV 96 hr post-AlbuBChE, 40 min after cocaine
[24] = cocaine 1 mg/kg IV 96 hr post-AlbuBChE, 60 min after cocaine
[25] = cocaine 1 mg/kg IV 120 hr post-AlbuBChE
[26] = cocaine 1 mg/kg IV 120 hr post-AlbuBChE, 5 min after cocaine
[27] = cocaine 1 mg/kg IV 120 hr post-AlbuBChE, 10 min after cocaine
[28] = cocaine 1 mg/kg IV 120 hr post-AlbuBChE, 15 min after cocaine
[29] = cocaine 1 mg/kg IV 120 hr post-AlbuBChE, 20 min after cocaine
[30] = cocaine 1 mg/kg IV 120 hr post-AlbuBChE, 30 min after cocaine

AlbuBChE
Mean benzoylecgonine AUC(0-t) [1]: 3136 ng·min/mL | Mean cocaine AUC(0-t) [1]: 11878 ng·min/mL | Mean cocaine C0 [1]: 628 ng/mL | Ecgonine methyl ester plasma concentration (mean) [2]: 51.6 ng/mL | Mean benzoylecgonine plasma concentration [2]: 50.6 ng/mL | Mean cocaine plasma concentration [2]: 481 ng/mL | Ecgonine methyl ester plasma concentration (mean) [3]: 81.9 ng/mL | Mean benzoylecgonine plasma concentration [3]: 49.7 ng/mL | Mean cocaine plasma concentration [3]: 370 ng/mL | Ecgonine methyl ester plasma concentration (mean) [4]: 83.2 ng/mL | Mean benzoylecgonine plasma concentration [4]: 50.4 ng/mL | Mean cocaine plasma concentration [4]: 273 ng/mL | Ecgonine methyl ester plasma concentration (mean) [5]: 154 ng/mL | Mean benzoylecgonine plasma concentration [5]: 65.1 ng/mL | Mean cocaine plasma concentration [5]: 227 ng/mL | Ecgonine methyl ester plasma concentration (mean) [6]: 261 ng/mL | Mean benzoylecgonine plasma concentration [6]: 28.6 ng/mL | Mean cocaine plasma concentration [6]: 67.0 ng/mL | Ecgonine methyl ester plasma concentration (mean) [7]: 120 ng/mL | Mean benzoylecgonine plasma concentration [7]: 58.0 ng/mL | Mean cocaine plasma concentration [7]: 115 ng/mL | Ecgonine methyl ester plasma concentration (mean) [8]: 120 ng/mL | Mean benzoylecgonine plasma concentration [8]: 60.5 ng/mL | Mean cocaine plasma concentration [8]: 58.6 ng/mL | Mean benzoylecgonine AUC(0-t) [9]: 1989 ng·min/mL | Mean cocaine AUC % Extrap [9]: 15.1% | Mean cocaine AUC(0-t) [9]: 7713 ng·min/mL | Mean cocaine AUC(0-∞) [9]: 9094 ng·min/mL | Mean cocaine C0 [9]: 274 ng/mL | Mean cocaine CI [9]: 110 mL/min/kg | Mean cocaine Vss [9]: 3.503 L/kg | Mean cocaine t½ [9]: 21.2 min | Ecgonine methyl ester plasma concentration (mean) [10]: 21.1 ng/mL | Mean benzoylecgonine plasma concentration [10]: 27.3 ng/mL | Mean cocaine plasma concentration [10]: 235 ng/mL | Ecgonine methyl ester plasma concentration (mean) [11]: 19.5 ng/mL | Mean benzoylecgonine plasma concentration [11]: 29.4 ng/mL | Mean cocaine plasma concentration [11]: 203 ng/mL | Ecgonine methyl ester plasma concentration (mean) [12]: 23.9 ng/mL | Mean benzoylecgonine plasma concentration [12]: 29.0 ng/mL | Mean cocaine plasma concentration [12]: 187 ng/mL | Ecgonine methyl ester plasma concentration (mean) [13]: 25.8 ng/mL | Mean benzoylecgonine plasma concentration [13]: 28.2 ng/mL | Mean cocaine plasma concentration [13]: 146 ng/mL | Ecgonine methyl ester plasma concentration (mean) [14]: 33.9 ng/mL | Mean benzoylecgonine plasma concentration [14]: 37.1 ng/mL | Mean cocaine plasma concentration [14]: 121 ng/mL | Ecgonine methyl ester plasma concentration (mean) [15]: 50.7 ng/mL | Mean benzoylecgonine plasma concentration [15]: 36.9 ng/mL | Mean cocaine plasma concentration [15]: 77.8 ng/mL | Ecgonine methyl ester plasma concentration (mean) [16]: 37.0 ng/mL | Mean benzoylecgonine plasma concentration [16]: 35.6 ng/mL | Mean cocaine plasma concentration [16]: 43.2 ng/mL | Mean benzoylecgonine AUC(0-t) [17]: 3270 ng·min/mL | Mean cocaine AUC % Extrap [17]: 14.9% | Mean cocaine AUC(0-t) [17]: 11145 ng·min/mL | Mean cocaine AUC(0-∞) [17]: 13008 ng·min/mL | Mean cocaine C0 [17]: 451 ng/mL | Mean cocaine CI [17]: 78.1 mL/min/kg | Mean cocaine Vss [17]: 2.506 L/kg | Mean cocaine t½ [17]: 21.1 min | Ecgonine methyl ester plasma concentration (mean) [18]: 26.4 ng/mL | Mean benzoylecgonine plasma concentration [18]: 49.7 ng/mL | Mean cocaine plasma concentration [18]: 360 ng/mL | Ecgonine methyl ester plasma concentration (mean) [19]: 39.4 ng/mL | Mean benzoylecgonine plasma concentration [19]: 47.7 ng/mL | Mean cocaine plasma concentration [19]: 301 ng/mL | Ecgonine methyl ester plasma concentration (mean) [20]: 24.5 ng/mL | Mean benzoylecgonine plasma concentration [20]: 52.6 ng/mL | Mean cocaine plasma concentration [20]: 255 ng/mL | Ecgonine methyl ester plasma concentration (mean) [21]: 29.8 ng/mL | Mean benzoylecgonine plasma concentration [21]: 55.1 ng/mL | Mean cocaine plasma concentration [21]: 189 ng/mL | Ecgonine methyl ester plasma concentration (mean) [22]: 49.8 ng/mL | Mean benzoylecgonine plasma concentration [22]: 56.5 ng/mL | Mean cocaine plasma concentration [22]: 165 ng/mL | Ecgonine methyl ester plasma concentration (mean) [23]: 50.2 ng/mL | Mean benzoylecgonine plasma concentration [23]: 55.2 ng/mL | Mean cocaine plasma concentration [23]: 118 ng/mL | Ecgonine methyl ester plasma concentration (mean) [24]: 43.4 ng/mL | Mean benzoylecgonine plasma concentration [24]: 57.8 ng/mL | Mean cocaine plasma concentration [24]: 60.5 ng/mL | Mean benzoylecgonine AUC(0-t) [25]: 3583 ng·min/mL | Mean cocaine AUC % Extrap [25]: 16.1% | Mean cocaine AUC(0-t) [25]: 11611 ng·min/mL | Mean cocaine AUC(0-∞) [25]: 14059 ng·min/mL | Mean cocaine C0 [25]: 391 ng/mL | Mean cocaine CI [25]: 72.5 mL/min/kg | Mean cocaine Vss [25]: 2.338 L/kg | Mean cocaine t½ [25]: 23.0 min | Ecgonine methyl ester plasma concentration (mean) [26]: 18.9 ng/mL | Mean benzoylecgonine plasma concentration [26]: 55.1 ng/mL | Mean cocaine plasma concentration [26]: 349 ng/mL | Ecgonine methyl ester plasma concentration (mean) [27]: 28.9 ng/mL | Mean benzoylecgonine plasma concentration [27]: 46.9 ng/mL | Mean cocaine plasma concentration [27]: 312 ng/mL | Ecgonine methyl ester plasma concentration (mean) [28]: 27.6 ng/mL | Mean benzoylecgonine plasma concentration [28]: 53.1 ng/mL | Mean cocaine plasma concentration [28]: 267 ng/mL | Ecgonine methyl ester plasma concentration (mean) [29]: 34.5 ng/mL | Mean benzoylecgonine plasma concentration [29]: 55.9 ng/mL | Mean cocaine plasma concentration [29]: 218 ng/mL | Ecgonine methyl ester plasma concentration (mean) [30]: 136 ng/mL | Mean benzoylecgonine plasma concentration [30]: 64.2 ng/mL | Mean cocaine plasma concentration [30]: 160 ng/mL

Reference: patent US8541373B2, “BChE albumin fusions for the treatment of cocaine abuse” (priority 2009, dated 2013)
